B1: p-Anisoyl Human Plasmin (protein, UniProt P00747 20-580; P00747 581-810, looked up)
Plasmin heavy chain A: EPLDDYVNTQGASLFSVTKKQLGAGSIEECAAKCEEDEEFTCRAFQYHSKEQQCVIMAENRKSSIIIRMRDVVLFEKKVYLSECKTGNGKNYRGTMSKTKNGITCQKWSSTSPHRPRFSPATHPSEGLEENYCRNPDNDPQGPWCYTTDPEKRYDYCDILECEEECMHCSGENYDGKISKTMSGLECQAWDSQSPHAHGYIPSKFPNKNLKKNYCRNPDRELRPWCFTTDPNKRWELCDIPRCTTPPPSSGPTYQCLKGTGENYRGNVAVTVSGHTCQHWSAQTPHTHNRTPENFPCKNLDENYCRNPDGKRAPWCHTTNSQVRWEYCKIPSCDSSPVSTEQLAPTAPPELTPVVQDCYHGDGQSYRGTSSTTTTGKKCQSWSSMTPHRHQKTPENYPNAGLTMNYCRNPDADKGPWCFTTDPSVRWEYCNLKKCSGTEASVVAPPPVVLLPDVETPSEEDCMFGNGKGYRGKRATTVTGTPCQDWAAQEPHRHSIFTPETNPRAGLEKNYCRNPDGDVGGPWCYTTNPRKLYDYCDVPQCAAPSFDCGKPQVEPKKCPGR
Plasmin light chain B: VVGGCVAHPHSWPWQVSLRTRFGMHFCGGTLISPEWVLTAAHCLEKSPRPSSYKVILGAHQEVNLEPHVQEIEVSRLFLEPTRKDIALLKLSSPAVITDKVIPACLPSPNYVVADRTECFITGWGETQGTFGAGLLKEAQLPVIENKVCNRYEFLNGRVQSTELCAGHLAGGTDSCQGDSGGPLVCFEKDKYILQGVTSWGLGCARPNKPGVYVRVSRFVTWIEGVMRNN
modifications: Plasmin active-site p-anisoyl acylated
notes: human plasmin acylated at the catalytic site with p-amidinophenyl p'anisate
B2: p-Acetamidobenzoyl: human plasmin, active site serine blocked by p-acetamidobenzoyl (acylating agent of Example 18) (protein, UniProt P00747 20-580; P00747 581-810, looked up)
Plasmin heavy chain A: EPLDDYVNTQGASLFSVTKKQLGAGSIEECAAKCEEDEEFTCRAFQYHSKEQQCVIMAENRKSSIIIRMRDVVLFEKKVYLSECKTGNGKNYRGTMSKTKNGITCQKWSSTSPHRPRFSPATHPSEGLEENYCRNPDNDPQGPWCYTTDPEKRYDYCDILECEEECMHCSGENYDGKISKTMSGLECQAWDSQSPHAHGYIPSKFPNKNLKKNYCRNPDRELRPWCFTTDPNKRWELCDIPRCTTPPPSSGPTYQCLKGTGENYRGNVAVTVSGHTCQHWSAQTPHTHNRTPENFPCKNLDENYCRNPDGKRAPWCHTTNSQVRWEYCKIPSCDSSPVSTEQLAPTAPPELTPVVQDCYHGDGQSYRGTSSTTTTGKKCQSWSSMTPHRHQKTPENYPNAGLTMNYCRNPDADKGPWCFTTDPSVRWEYCNLKKCSGTEASVVAPPPVVLLPDVETPSEEDCMFGNGKGYRGKRATTVTGTPCQDWAAQEPHRHSIFTPETNPRAGLEKNYCRNPDGDVGGPWCYTTNPRKLYDYCDVPQCAAPSFDCGKPQVEPKKCPGR
Plasmin light chain B: VVGGCVAHPHSWPWQVSLRTRFGMHFCGGTLISPEWVLTAAHCLEKSPRPSSYKVILGAHQEVNLEPHVQEIEVSRLFLEPTRKDIALLKLSSPAVITDKVIPACLPSPNYVVADRTECFITGWGETQGTFGAGLLKEAQLPVIENKVCNRYEFLNGRVQSTELCAGHLAGGTDSCQGDSGGPLVCFEKDKYILQGVTSWGLGCARPNKPGVYVRVSRFVTWIEGVMRNN
modifications: plasmin p-acetamidobenzoyl acylated active site
B3: O-Anisoyl: human plasmin, active site serine blocked by o-anisoyl (acylating agent of Example 15) (protein, UniProt P00747 20-580; P00747 581-810, looked up)
Plasmin heavy chain A: EPLDDYVNTQGASLFSVTKKQLGAGSIEECAAKCEEDEEFTCRAFQYHSKEQQCVIMAENRKSSIIIRMRDVVLFEKKVYLSECKTGNGKNYRGTMSKTKNGITCQKWSSTSPHRPRFSPATHPSEGLEENYCRNPDNDPQGPWCYTTDPEKRYDYCDILECEEECMHCSGENYDGKISKTMSGLECQAWDSQSPHAHGYIPSKFPNKNLKKNYCRNPDRELRPWCFTTDPNKRWELCDIPRCTTPPPSSGPTYQCLKGTGENYRGNVAVTVSGHTCQHWSAQTPHTHNRTPENFPCKNLDENYCRNPDGKRAPWCHTTNSQVRWEYCKIPSCDSSPVSTEQLAPTAPPELTPVVQDCYHGDGQSYRGTSSTTTTGKKCQSWSSMTPHRHQKTPENYPNAGLTMNYCRNPDADKGPWCFTTDPSVRWEYCNLKKCSGTEASVVAPPPVVLLPDVETPSEEDCMFGNGKGYRGKRATTVTGTPCQDWAAQEPHRHSIFTPETNPRAGLEKNYCRNPDGDVGGPWCYTTNPRKLYDYCDVPQCAAPSFDCGKPQVEPKKCPGR
Plasmin light chain B: VVGGCVAHPHSWPWQVSLRTRFGMHFCGGTLISPEWVLTAAHCLEKSPRPSSYKVILGAHQEVNLEPHVQEIEVSRLFLEPTRKDIALLKLSSPAVITDKVIPACLPSPNYVVADRTECFITGWGETQGTFGAGLLKEAQLPVIENKVCNRYEFLNGRVQSTELCAGHLAGGTDSCQGDSGGPLVCFEKDKYILQGVTSWGLGCARPNKPGVYVRVSRFVTWIEGVMRNN
modifications: plasmin o-anisoyl acylated active site
B4: N-methyl-p-guanidinobenzoyl: human plasmin, active site serine blocked by N-methyl-p-guanidinobenzoyl (protein, UniProt P00747 20-580; P00747 581-810, looked up)
Plasmin heavy chain A: EPLDDYVNTQGASLFSVTKKQLGAGSIEECAAKCEEDEEFTCRAFQYHSKEQQCVIMAENRKSSIIIRMRDVVLFEKKVYLSECKTGNGKNYRGTMSKTKNGITCQKWSSTSPHRPRFSPATHPSEGLEENYCRNPDNDPQGPWCYTTDPEKRYDYCDILECEEECMHCSGENYDGKISKTMSGLECQAWDSQSPHAHGYIPSKFPNKNLKKNYCRNPDRELRPWCFTTDPNKRWELCDIPRCTTPPPSSGPTYQCLKGTGENYRGNVAVTVSGHTCQHWSAQTPHTHNRTPENFPCKNLDENYCRNPDGKRAPWCHTTNSQVRWEYCKIPSCDSSPVSTEQLAPTAPPELTPVVQDCYHGDGQSYRGTSSTTTTGKKCQSWSSMTPHRHQKTPENYPNAGLTMNYCRNPDADKGPWCFTTDPSVRWEYCNLKKCSGTEASVVAPPPVVLLPDVETPSEEDCMFGNGKGYRGKRATTVTGTPCQDWAAQEPHRHSIFTPETNPRAGLEKNYCRNPDGDVGGPWCYTTNPRKLYDYCDVPQCAAPSFDCGKPQVEPKKCPGR
Plasmin light chain B: VVGGCVAHPHSWPWQVSLRTRFGMHFCGGTLISPEWVLTAAHCLEKSPRPSSYKVILGAHQEVNLEPHVQEIEVSRLFLEPTRKDIALLKLSSPAVITDKVIPACLPSPNYVVADRTECFITGWGETQGTFGAGLLKEAQLPVIENKVCNRYEFLNGRVQSTELCAGHLAGGTDSCQGDSGGPLVCFEKDKYILQGVTSWGLGCARPNKPGVYVRVSRFVTWIEGVMRNN
modifications: plasmin N-methyl-p-guanidinobenzoyl acylated active site

Tested on: Human Plasmin
Experiment: Deacylation (hydrolysis) of active-site blocked human plasmin, pseudo-first order rate constant followed by regain of activity on chromogenic substrate S-2251
Type: biochemical
Conditions: for Deacylation rate, Human Plasmin K sec^-1 × 10^4: active site serine substituted human plasmin, pH 7.4, 37° C.
Protocol: The pseudo-first order rate constant is determined by hydrolysing the enzyme derivative under physiological conditions i.e. in isotonic aqueous media at pH 7.4 and at 37° C. At regular intervals aliquots are withdrawn and incubated with a chromogenic or fluorogenic protease substrate such as S-2251 (H-D-Val-Leu-Lys-p-nitroanilide 2HCl) and the rate of conversion of the substrate measured.
The hydrolysis is followed until such time as the rate of conversion of substrate reaches a maximum. The rate constant k is then calculated by plotting: […]
loge (1-^At /Amax) against t
where Amax the maximum rate at which an aliquot converts substrate and At is the rate at which an aliquot converts substrate at time t.

| Molecule | time for quantitative reactivation to free plasmin (conditions specified for deacylation (isotonic aqueous media, pH 7.4, 37° C.)) | Deacylation rate, Human Plasmin K sec^-1 × 10^4 |
| --- | --- | --- |
| B1 | approximately two |  |
| B2 |  | 2.70 sec^-1 × 10^4 |
| B3 |  | 1.82 sec^-1 × 10^4 |
| B4 |  | 2.0 sec^-1 × 10^4 |

From patent US4285932A, “Enzyme derivatives for use in the treatment of venous thrombosis” (Beecham Group Limited, priority 1978, dated 1981)
